Experimental data as given in patent US7935785B2, “Selective substrates for matrix metalloproteinases” (Sanford-Burnham Medical Research Institute, priority 2001, dated 2011).

B1: Eph B1-Fc fusion protein: extracellular domain of rat EphB1 (residues 1-538) fused to Fc region of human IgG, R&D Systems (protein)
chain: MEETLMDTRTATAELGWTANPASGWEEVSGYDENLNTIRTYQVCNVFEPNQNNWLLTTFINRRGAHRIYTEMRFTVRDCSSLPNVPGSCKETFNLYYYETDSVIATKKSAFWSEAPYLKVDTIAADESFSQVDFGGRLMKVNTEVRSFGPLTRNGFYLAFQDYGACMSLLSVRVFFKKCPSIVQNFAVFPETMTGAESTSLVIARGTCIPNAEEVDVPIKLYCNGDGEWMVPIGRCTCKAGYEPENSVACKACPAGTFKASQEAEGCSHCPSNSRSPSEASPICTCRTGYYRADFDPPEVACTSVPSGPRNVISIVNETSIILEWHPPRETGGRDDVTYNIICKKCRADRRSCSRCDDNVEFVPRQLGLTECRVSISSLWAHTPYTFDIQAINGVSSKSPFPPQHVSVNITTNQAAPSTVPIMHQVSATMRSITLSWPQPEQPNGIILDYEIRYYEKEHNEFNSSMARSQTNTARIDGLRPGMVYVVQVRARTVAGYGKFSGKMCFQTLTDDDYKSELREQ
modifications: left off: small tags and cut ends; a dimerising Fc or GST
notes: extracellular domain of rat EphB1 (residues 1-538) fused to Fc region of human IgG, R&D Systems

Columns and labels:
Type in all cases: biochemical
MMP-9 [1] = biological target: T1, MMP-9 (Homo sapiens, UniProt P14780); experiment: Peptide substrate hydrolysis kinetics, fluorescamine incorporation assay (kcat, Km, kcat/Km, selectivity ratio); conditions: for selectivity ratio: kcat/Km for MMP-9 divided by kcat/Km for MMP-1 / selectivity ratio: kcat/Km for MMP-9 divided by kcat/Km for MMP-7: MMP-9 substrates
T1 construct: a recombinant form of the catalytic domain of MMP-9 expressed in HEK 293 cells; made in house; host or cells: HEK 293 cells
T1 sequence (P14780 94-444 limits assumed): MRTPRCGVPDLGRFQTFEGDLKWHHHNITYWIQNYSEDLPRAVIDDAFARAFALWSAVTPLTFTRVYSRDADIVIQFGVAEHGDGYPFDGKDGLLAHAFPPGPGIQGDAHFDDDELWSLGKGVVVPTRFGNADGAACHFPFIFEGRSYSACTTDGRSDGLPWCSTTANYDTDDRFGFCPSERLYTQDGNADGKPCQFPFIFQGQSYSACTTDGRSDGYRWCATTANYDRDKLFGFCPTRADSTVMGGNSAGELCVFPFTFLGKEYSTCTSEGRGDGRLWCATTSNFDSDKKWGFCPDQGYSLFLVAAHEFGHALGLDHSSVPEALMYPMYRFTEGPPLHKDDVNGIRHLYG
Description: (§1) In order to measure the selectivity of individual substrates for one metalloproteinase over another, representative polypeptides from the selected phage were synthesized and their rate of hydrolysis by several matrix metalloproteinases was determined. In some cases these representative polypeptide sequences contained an amino-terminal serine (S) and glycine (G) and/or a carboxyl-terminal threonine (T) and alanine (A) since these residues were used in the construction of the phage substrate library, although one skilled in the art will understand that other amino acid residues could be substituted at these positions. The kinetic parameters of substrate hydrolysis were measured using a fluorescamine incorporation assay that has been described previously (Ding et al., PNAS, 92:7627-7631 (1995); Coombs et al., Chem. and Biol. 5:475-488 (1998); Fields et al., J. Biol. Chem., 262:6221-6226 (1987); Netzel-Arnett., et al. J. Biol. Chem., 266:6747-6755 (1991)).
(§2) Briefly, individual metalloproteinases were incubated with the individual polypeptide substrates at concentrations ranging from 100-800 µM. At selected time points the reactions were stopped by the addition of 1,10 phenanthroline. Polypeptide hydrolysis was determined by the addition of fluorescamine followed by detection at an excitation wavelength of 355 nm and an emission wavelength of 460 nm. The data were transformed to double reciprocal plots (1/[S] vs 1/vi) to determine Km and kcat. In some cases Km and kcat could not be determined individually, but the specificity constant, kcat/Km, was derived by the equation: […] (Netzel-Arnett, supra, and Zumla et al., J. Immunol. Methods 149:69-76 (1992)).
(§3) The selectivity ratio of each polypeptide substrate was calculated by dividing the kcat/Km value for one matrix metalloproteinase by the kcat/Km value for the other matrix metalloproteinases that were tested. […] In many cases the polypeptide substrates are selective for one matrix metalloproteinase compared to several other matrix metalloproteinases.
(§4) The kinetic parameters of substrate hydrolysis were measured using a fluorescamine incorporation assay that has been previously described (Ding et al., PNAS, 92:7627-7631 (1995); Coombs et al., Chem. and Biol. 5:475-488 (1998); Fields et al., J. Biol. Chem., 262:6221-6226 (1987); Netzel-Arnett., et al. J. Biol. Chem., 266:6747-6755 (1991)). Briefly, MMP-2, MMP-9, MMP-7, or MMP-13 were incubated with individual peptide substrates at concentrations ranging from 100-800 μM in 50 mM Tris, pH 7.5, 100 mM NaCl, 10 mM CaCl2, 50 μM ZnCl2. At selected time points the reactions were stopped by the addition of 1,10-phenanthroline. Peptide hydrolysis was determined by the addition of fluorescamine followed by detection at λex 355 nm and λem 460 nm. The data were transformed to double reciprocal plots (1/[S] vs 1/vj) to determine Km and kcat. […] A double recipricol plot of the hydrolysis of peptide B 74 is shown as a representative plot (FIG. 4).
The Michaelis constant (Km) and first-order rate constant of substrate peptide turnover (kcat) were measured by incubating a range of each peptide with MMP-9. Peptide hydrolysis was measured by incorporation of fluorescamine onto newly formed amino-termini as previously described. From these measurements, kcat and Km were derived for each peptide using double-reciprocal plots of 1/[S] vs 1/vj. Among the peptides, the kcat values ranged from 9 s^−1 to 703 and Km values were generally in the high micromolar to low millimolar range.

MMP-2 [2] = biological target: T2, MMP-2 (Homo sapiens, UniProt P08253); experiment: Peptide substrate hydrolysis kinetics, fluorescamine incorporation assay (kcat/Km, selectivity ratio); conditions: MMP-2 substrates
T2 construct: the cDNA encoding the catalytic domain of MMP-2 was generated by PCR; made in house; host or cells: HEK 293 cells
T2 sequence (P08253 110-465 limits assumed): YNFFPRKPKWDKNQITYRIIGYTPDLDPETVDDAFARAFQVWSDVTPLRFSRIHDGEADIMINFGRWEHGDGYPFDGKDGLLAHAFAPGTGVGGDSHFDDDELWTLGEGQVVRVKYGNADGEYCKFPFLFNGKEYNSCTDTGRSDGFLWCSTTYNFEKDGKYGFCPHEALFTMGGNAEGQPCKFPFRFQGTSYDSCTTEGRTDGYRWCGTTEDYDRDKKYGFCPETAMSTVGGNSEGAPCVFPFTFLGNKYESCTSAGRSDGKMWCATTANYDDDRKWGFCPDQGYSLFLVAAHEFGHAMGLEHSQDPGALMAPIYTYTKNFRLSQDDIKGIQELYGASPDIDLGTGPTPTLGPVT
Description: as §1, §2, §3, §4

MT1-MMP = MT1-MMP (Homo sapiens, UniProt P50281); experiment: Peptide substrate hydrolysis kinetics, selectivity between MT1-MMP and MMP-9; conditions: MT1-MMP substrates
Description: as §1, §2, §3
Polypeptide substrates for Membrane type-Matrix Metalloproteinase 1 (MT1-MMP) were identified using substrate phage display as described for MMP-2 and MMP-9. Synthetic peptides that are analogous to the phage sequences were used to quantitate the level of selectivity between MT1-MMP and MMP-9 (see Table II).

MMP-2 [3] = biological target: T2, MMP-2; experiment: Cleavage of recombinant Eph receptor-Fc fusion proteins, SDS-PAGE; conditions: 1.8 μM fusion protein, 280 nM MMP-2, 4 hours, 37° C.
Description: (§5) Recombinant fusion proteins between EphB1, EphB2 and the Fc domain of IgG were purchased from R&D Systems Inc. In these constructs, the extracellular domain of rat EphB1 (amino acid residues 1-538) and mouse EphB2 (amino acid residues 1-548) are fused to the Fc region of human IgG via a short polypeptide linker. The fusion proteins (1.8 μM) were incubated for 4 hours at 37° C. with 280 nM of either MMP-2 or MMP-9. Following incubation, samples were resolved by 10% SDS-PAGE, and samples were visualized by Coomassie staining. The N-terminus of the cleaved Eph B1 was determined by automated Edman degradation of protein blotted to PVDF membranes.
(§6) The Eph B1 and Eph B2 fusion proteins were incubated with equimolar amounts (280 nM) of MMP-2 and MMP-9 for four hours. The extent of hydrolysis was gauged by SDS-PAGE (FIG. 3). […] The extent of cleavage by MMP-9 was far lower (lane 3). […] The site of hydrolysis within Eph B1 was determined by sequencing the N-terminus of one of the released fragments. […] This is one of the predicted cleavage sites in EphB1. These findings illustrate that motifs found to be selective for MMP-2 by substrate phage display, can act as selective substrates within the context of whole proteins. This experiment also illustrates that the three dimensional conformation of the putative cleavage site will also control the extent of hydrolysis.

MMP-9 [4] = biological target: T1, MMP-9; experiment: as above; conditions: 1.8 μM fusion protein, 280 nM MMP-9, 4 hours, 37° C.
Description: as §5, §6

[5] = hydrolysis by MMP-9, Ala instead of Leu at P1′

Molecule | selectivity ratio: kcat/Km for MMP-2 divided by kcat/Km for MMP-9 (MMP-2 [2]) | selectivity ratio: kcat/Km for MMP-2 divided by kcat/Km for MMP-1 (MMP-2 [2]) | selectivity ratio: kcat/Km for MMP-2 divided by kcat/Km for MMP-7 (MMP-2 [2]) | also measured
AC-SGKIPRTATA-NH2 (Ac-SGKIPRTATA-NH2) [Clone A11m2] |  |  |  | kcat/Km ratio (MMP-9 [1]; hydrolysis by MMP-9): 2,000 M^−1s^−1; effect of substitution on kcat and Km (MMP-9 [1]; [5]): deleterious effects on both kcat and Km; reduction of kcat/Km ratio relative to peptide A11 (MMP-9 [1]; [5]): ~30 fold
A21: MMP-2 selective substrate peptide from phage clone A21, sequence H-M-H-K-A-L-T-A (HMHKALTA) | 8 |  |  | 
A13: MMP-2 selective substrate peptide from phage clone A13, sequence G-A-V-S-W-L-L-T (GAVSWLLT) | 15 | 28 | 13 | 
A3: MMP-2 selective substrate peptide from phage clone A3, sequence A-K-P-R-A-L-T-A (AKPRALTA) | 2 | 14 | 21 | 
C15: MMP-9 selective substrate peptide from phage clone C15, sequence S-G-K-G-P-R-Q-I-T-A (Table V) (KGPRQITA) |  |  |  | selectivity ratio: kcat/Km for MMP-9 divided by kcat/Km for MMP-1 (MMP-9 [1]): 12; selectivity ratio: kcat/Km for MMP-9 divided by kcat/Km for MMP-7 (MMP-9 [1]): 14
A176: MT1-MMP selective substrate peptide from phage clone A176, sequence S-G-R-S-E-N-I-R-T-A (Table V) (RSENIRT) |  |  |  | selectivity ratio: kcat/Km for MT1-MMP divided by kcat/Km for MMP-9 (MT1-MMP): 73
B74: MMP-2 selective substrate peptide from phage clone B74, sequence E-S-L-A-Y-Y-T-A (ESLAYYTA) | 108 | 140 | 354 | 
A11: MMP-9 selective substrate peptide from phage clone A11, sequence S-G-K-I-P-R-T-L-T-A (Table V) (KIPRTLTA) |  |  |  | selectivity ratio: kcat/Km for MMP-9 divided by kcat/Km for MMP-1 (MMP-9 [1]): 3; selectivity ratio: kcat/Km for MMP-9 divided by kcat/Km for MMP-7 (MMP-9 [1]): 10
B49: MMP-2 selective substrate peptide from phage clone B49, sequence L-R-L-A-A-I-T-A (LRLAAITA) | 14 | 13 | 6 | 
B96: MT1-MMP selective substrate peptide from phage clone B96, sequence S-G-L-I-S-H-S-I-T-A (Table V) (LISHSITA) |  |  |  | selectivity ratio: kcat/Km for MT1-MMP divided by kcat/Km for MMP-9 (MT1-MMP): 5
A34: MMP-2 selective substrate peptide from phage clone A34, sequence N-R-Y-S-S-L-T-A (NRYSSLTA) | 40 | 24 | 84 | 
C9: MMP-2 selective substrate peptide from phage clone C9, sequence R-S-L-S-R-L-T-A (RSLSRLTA) | 198 | 52 | 35 | 
A42: MT1-MMP selective substrate peptide from phage clone A42, sequence S-G-R-I-G-F-L-R-T-A (Table V) (RIGFLRT) |  |  |  | selectivity ratio: kcat/Km for MT1-MMP divided by kcat/Km for MMP-9 (MT1-MMP): 54
B37: MMP-2 selective substrate peptide from phage clone B37, sequence A-N-I-S-D-L-T-A (ANISDLTA) | 71 | 58 | 17 | 
B149: MT1-MMP selective substrate peptide from phage clone B149, sequence S-G-A-R-Y-R-W-L-T-A (Table V) (ARYRWLTA) |  |  |  | selectivity ratio: kcat/Km for MT1-MMP divided by kcat/Km for MMP-9 (MT1-MMP): 3
A6: MMP-9 selective substrate peptide from phage clone A6, sequence S-G-P-R-A-V-S-T-T-A (Table V) (PRAVST) |  |  |  | selectivity ratio: kcat/Km for MMP-9 divided by kcat/Km for MMP-1 (MMP-9 [1]): 5; selectivity ratio: kcat/Km for MMP-9 divided by kcat/Km for MMP-7 (MMP-9 [1]): 47
B175: MT1-MMP selective substrate peptide from phage clone B175, sequence S-G-R-A-M-H-M-Y-T-A (Table V) (RAMHMYT) |  |  |  | selectivity ratio: kcat/Km for MT1-MMP divided by kcat/Km for MMP-9 (MT1-MMP): 19
B1 |  |  |  | extent of hydrolysis by MMP-2 (SDS-PAGE) (MMP-2 [3]): almost quantitatively cleaved; extent of hydrolysis by MMP-9 (SDS-PAGE) (MMP-9 [4]): far lower
